The results in this text go back to article PMC11257959.

The data set deals with NG-RYBP (Homo sapiens). Put plainly: EMSA. The conditions noted are these: n=3; almost fourfold; EMSA: 25 mM Tris-HCl pH 7.5, 50 mM NaCl, 0.05% Tween 20, 5 mM MgCl2, 4% glycerol, 0.2 nM nucleosome, 10 min on ice, 1% agarose 0.4x TBE; cryo-EM binding: 50 mM …. (In EMSA bound probe runs differently from free probe, usually more slowly.)

Take Nuc (EMSA, 201 bp 601): the binding signal (fold lower affinity than NucH2Aub1) is 4.
